Test results reported in US20170051072A1 (UNITED STATES OF AMERICA AS REPRESENTED BY THE SECRETARY …, published 2017).
Values joined by “and” are separate entries in the source; they are usually repeats but may differ in a detail not shown here. Equal entries are not always repeated.

Assays:
[1] = target: T1, human mesothelin with His-tag (R&D Systems) (human, UniProt Q13421 296-580); test: ELISA, IgG on captured His-huMesothelin (R&D)
T1 construct: also called huMesothelin; MSLN; not shown: His-tag
T1 sequence (Q13421 other isoform, or with tags, fused parts or gaps limits assumed): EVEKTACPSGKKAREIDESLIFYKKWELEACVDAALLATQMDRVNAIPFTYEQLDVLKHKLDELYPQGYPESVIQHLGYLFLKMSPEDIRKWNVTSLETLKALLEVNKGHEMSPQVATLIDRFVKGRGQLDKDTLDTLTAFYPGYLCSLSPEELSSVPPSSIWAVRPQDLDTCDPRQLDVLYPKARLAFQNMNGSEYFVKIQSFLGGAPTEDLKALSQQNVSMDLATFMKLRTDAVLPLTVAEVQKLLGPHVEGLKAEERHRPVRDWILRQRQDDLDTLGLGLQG

[2] = target: T2, human mesothelin with His-tag (in house) (human, UniProt Q13421 296-598, limits assumed); test: ELISA, IgG on captured His-huMesothelin (in house)
T2 construct: also called huMesothelin; MSLN; not shown: His-tag
T2 sequence (Q13421 other isoform, or with tags, fused parts or gaps limits assumed): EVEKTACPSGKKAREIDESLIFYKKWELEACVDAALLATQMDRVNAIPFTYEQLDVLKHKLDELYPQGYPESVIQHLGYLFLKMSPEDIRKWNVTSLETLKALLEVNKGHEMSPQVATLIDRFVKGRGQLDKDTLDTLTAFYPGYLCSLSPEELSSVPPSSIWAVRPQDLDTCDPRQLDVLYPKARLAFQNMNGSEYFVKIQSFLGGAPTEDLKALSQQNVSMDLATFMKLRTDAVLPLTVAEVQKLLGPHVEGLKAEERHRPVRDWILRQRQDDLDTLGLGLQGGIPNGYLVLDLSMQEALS

human mesothelin (SPR) = target: T3, human mesothelin (SPR) (human, UniProt Q13421 296-598, limits assumed); test: SPR, IgG captured on Protein A, 50 nM human mesothelin, 25 C, 1:1 fit
T3 construct: also called human MSLN

B1: IgG VH 000/15437 + VL 001/15457 (antibody, V domains shown)
VH: not shown
VL: DIQMTQSPSSLSASVGDRVTITCSASSSVSYMHWYQQKSGKAPKLLIYDTSKLASGVPSRFSGSGSGTDFTLTISSLQPEDFATYYCQQWSKHPLTFGQGTKLEIK
EC50 [1]: 0.0182 µg/mL
EC50 [2]: 0.0178 µg/mL

B2: IgG VH 001/15438 + VL 000/15456 (antibody, V domains shown)
VH: QVQLVQSGAEVKKPGASVKVSCKASGYSFTGYTMNWVRQAPGQGLEWMGLITPYNGASSYNQKFRGKATMTVDTSTSTVYMELSSLRSEDTAVYYCARGGYDGRGFDYWGQGTLVTVSS
VL: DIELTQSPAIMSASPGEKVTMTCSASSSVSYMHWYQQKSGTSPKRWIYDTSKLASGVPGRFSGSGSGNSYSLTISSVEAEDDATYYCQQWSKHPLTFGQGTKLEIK
EC50 [1]: 0.0228 µg/mL
EC50 [2]: 0.032 µg/mL

B3: IgG VH 001/15438 + VL 001/15457 (antibody, V domains shown)
VH: B2 VH
VL: B1 VL
notes: also called VL001/VH001; VL01/VH01
EC50 [1]: 0.0155 µg/mL
EC50 [2]: 0.0203 µg/mL
Kd (human mesothelin (SPR)): 0.263 nM and 0.26 nM
